Reference: patent publication US20220033501A1
Where “and” joins values, the source holds several entries; their conditions need not be identical. Equal entries are not always repeated. One block for each substance: values may come before it.

Experiments:
[1] = target: human TIM-3 protein with hFc tag (hTIM-3-hFc protein) (human) (UniProt Q8TDQ0); experiment: ELISA, hTIM-3-hFc coated at 1 ug/ml; antibody 0.0043 nM
[2] = target: human TIM-3 protein with hFc tag (hTIM-3-hFc protein) (human) (UniProt Q8TDQ0); experiment: ELISA, hTIM-3-hFc coated at 1 ug/ml; antibody 0.021 nM
[3] = target: human TIM-3 protein with hFc tag (hTIM-3-hFc protein) (human) (UniProt Q8TDQ0); experiment: ELISA, hTIM-3-hFc coated at 1 ug/ml; antibody 0.53 nM
[4] = target: human TIM-3 protein with hFc tag (hTIM-3-hFc protein) (human) (UniProt Q8TDQ0); experiment: ELISA, hTIM-3-hFc coated at 1 ug/ml; antibody 0.11 nM
[5] = target: human TIM-3 protein with hFc tag (hTIM-3-hFc protein) (human) (UniProt Q8TDQ0); experiment: ELISA, hTIM-3-hFc coated at 1 ug/ml; antibody 66.7 nM
[6] = target: human TIM-3 protein with hFc tag (hTIM-3-hFc protein) (human) (UniProt Q8TDQ0); experiment: ELISA, hTIM-3-hFc coated at 1 ug/ml; antibody 0 nM (blank)
[7] = target: human TIM-3 protein with hFc tag (hTIM-3-hFc protein) (human) (UniProt Q8TDQ0); experiment: ELISA, hTIM-3-hFc coated at 1 ug/ml; antibody 13.34 nM
[8] = target: human TIM-3 protein with hFc tag (hTIM-3-hFc protein) (human) (UniProt Q8TDQ0); experiment: ELISA, hTIM-3-hFc coated at 1 ug/ml; antibody 2.67 nM
[9] = target: human TIM-3 protein on human PBMC (human) (UniProt Q8TDQ0); experiment: cell-based or functional assay
[10] = target: human TIM-3 protein with hFc tag (hTIM-3-hFc protein) (human) (UniProt Q8TDQ0); experiment: ELISA, coated hTIM-3-hFc; antibody 0.0667 nM
[11] = target: monkey TIM-3 protein with hFc tag (cTIM-3-hFc protein) (monkey; human); experiment: ELISA, coated cTIM-3-hFc; antibody 6.6667 nM
[12] = target: human TIM-3 protein with hFc tag (hTIM-3-hFc protein) (human) (UniProt Q8TDQ0); experiment: ELISA, coated hTIM-3-hFc; antibody 0.0001 nM
[13] = target: human TIM-3, full length, on cells (human) (UniProt Q8TDQ0); experiment: FACS, CHOK1-hTIM-3 cells; antibody 0.064 nM
[14] = target: murine TIM-3 protein with hFc tag (mTIM-3-hFc protein) (mouse; human) (UniProt Q8VIM0); experiment: ELISA, coated mTIM-3-hFc; antibody 0.0067 nM
[15] = target: human TIM-3 protein with hFc tag (hTIM-3-hFc protein) (human) (UniProt Q8TDQ0); experiment: ELISA, coated hTIM-3-hFc; antibody 0.6667 nM
[16] = target: human TIM-3 protein with hFc tag (hTIM-3-hFc protein) (human) (UniProt Q8TDQ0); experiment: ELISA, coated hTIM-3-hFc; antibody 66.667 nM
[17] = target: human TIM-3, full length, on cells (human) (UniProt Q8TDQ0); experiment: FACS, CHOK1-hTIM-3 cells; antibody 0.013 nM
[18] = target: monkey TIM-3 protein with hFc tag (cTIM-3-hFc protein) (monkey; human); experiment: ELISA, coated cTIM-3-hFc; antibody 0.6667 nM
[19] = target: human TIM-3, full length, on cells (human) (UniProt Q8TDQ0); experiment: FACS, CHOK1-hTIM-3 cells; antibody 1.6 nM
[20] = target: monkey TIM-3 protein with hFc tag (cTIM-3-hFc protein) (monkey; human); experiment: ELISA, coated cTIM-3-hFc; antibody 0 nM (blank)
[21] = target: human TIM-3 protein with hFc tag (hTIM-3-hFc protein) (human) (UniProt Q8TDQ0); experiment: ELISA, coated hTIM-3-hFc; antibody 0.0007 nM
[22] = target: monkey TIM-3 protein with hFc tag (cTIM-3-hFc protein) (monkey; human); experiment: ELISA, coated cTIM-3-hFc; antibody 0.0007 nM
[23] = target: human TIM-3 protein with hFc tag (hTIM-3-hFc protein) (human) (UniProt Q8TDQ0); experiment: ELISA, coated hTIM-3-hFc; antibody 0.0067 nM
[24] = target: human TIM-3, full length, on cells (human) (UniProt Q8TDQ0); experiment: FACS, CHOK1-hTIM-3 cells; antibody 8 nM
[25] = target: murine TIM-3 protein with hFc tag (mTIM-3-hFc protein) (mouse; human) (UniProt Q8VIM0); experiment: ELISA, coated mTIM-3-hFc; antibody 0 nM (blank)
[26] = target: murine TIM-3 protein with hFc tag (mTIM-3-hFc protein) (mouse; human) (UniProt Q8VIM0); experiment: ELISA, coated mTIM-3-hFc; antibody 0.0007 nM
[27] = target: murine TIM-3 protein with hFc tag (mTIM-3-hFc protein) (mouse; human) (UniProt Q8VIM0); experiment: ELISA, coated mTIM-3-hFc; antibody 66.667 nM
[28] = target: monkey TIM-3 protein with hFc tag (cTIM-3-hFc protein) (monkey; human); experiment: ELISA, coated cTIM-3-hFc; antibody 66.667 nM
[29] = target: monkey TIM-3 protein with hFc tag (cTIM-3-hFc protein) (monkey; human); experiment: ELISA, coated cTIM-3-hFc; antibody 0.0067 nM
[30] = target: human TIM-3, full length, on cells (human) (UniProt Q8TDQ0); experiment: FACS, CHOK1-hTIM-3 cells; antibody 200 nM
[31] = target: murine TIM-3 protein with hFc tag (mTIM-3-hFc protein) (mouse; human) (UniProt Q8VIM0); experiment: ELISA, coated mTIM-3-hFc; antibody 0.0001 nM
[32] = target: human TIM-3 protein with hFc tag (hTIM-3-hFc protein) (human) (UniProt Q8TDQ0); experiment: ELISA, coated hTIM-3-hFc; antibody 6.6667 nM
[33] = target: murine TIM-3 protein with hFc tag (mTIM-3-hFc protein) (mouse; human) (UniProt Q8VIM0); experiment: ELISA, coated mTIM-3-hFc; antibody 6.6667 nM
[34] = target: human TIM-3, full length, on cells (human) (UniProt Q8TDQ0); experiment: FACS, CHOK1-hTIM-3 cells; antibody 0.32 nM
[35] = target: murine TIM-3 protein with hFc tag (mTIM-3-hFc protein) (mouse; human) (UniProt Q8VIM0); experiment: ELISA, coated mTIM-3-hFc; antibody 0.6667 nM
[36] = target: monkey TIM-3 protein with hFc tag (cTIM-3-hFc protein) (monkey; human); experiment: ELISA, coated cTIM-3-hFc; antibody 0.0001 nM
[37] = target: human TIM-3, full length, on cells (human) (UniProt Q8TDQ0); experiment: FACS, CHOK1-hTIM-3 cells; antibody 0 nM (blank)
[38] = target: monkey TIM-3 protein with hFc tag (cTIM-3-hFc protein) (monkey; human); experiment: ELISA, coated cTIM-3-hFc; antibody 0.0667 nM
[39] = target: murine TIM-3 protein with hFc tag (mTIM-3-hFc protein) (mouse; human) (UniProt Q8VIM0); experiment: ELISA, coated mTIM-3-hFc; antibody 0.0667 nM
[40] = target: human TIM-3 protein with hFc tag (hTIM-3-hFc protein) (human) (UniProt Q8TDQ0); experiment: ELISA, coated hTIM-3-hFc; antibody 0 nM (blank)
[41] = target: human TIM-3, full length, on cells (human) (UniProt Q8TDQ0); experiment: FACS, CHOK1-hTIM-3 cells; antibody 40 nM
[42] = target: monkey TIM-3 on CHOK1 stable cell line (CHOK1-cTIM-3) (monkey); experiment: FACS, CHOK1-cTIM-3 cells, 0.32 nM antibody
[43] = target: monkey TIM-3 on CHOK1 stable cell line (CHOK1-cTIM-3) (monkey); experiment: FACS, CHOK1-cTIM-3 cells, 40 nM antibody
[44] = target: monkey TIM-3 on CHOK1 stable cell line (CHOK1-cTIM-3) (monkey); experiment: FACS, CHOK1-cTIM-3 cells, 0.064 nM antibody
[45] = target: monkey TIM-3 on CHOK1 stable cell line (CHOK1-cTIM-3) (monkey); experiment: FACS, CHOK1-cTIM-3 cells, 200 nM antibody
[46] = target: TIM-3 protein on human peripheral blood mononuclear lymphocytes (PBMC) (human) (UniProt Q8TDQ0); experiment: cell-based or functional assay
[47] = target: monkey TIM-3 on CHOK1 stable cell line (CHOK1-cTIM-3) (monkey); experiment: FACS, CHOK1-cTIM-3 cells, 8 nM antibody
[48] = target: monkey TIM-3 on CHOK1 stable cell line (CHOK1-cTIM-3) (monkey); experiment: FACS, CHOK1-cTIM-3 cells, 1.6 nM antibody
[49] = target: monkey TIM-3 on CHOK1 stable cell line (CHOK1-cTIM-3) (monkey); experiment: FACS, CHOK1-cTIM-3 cells, 0 nM antibody
[50] = target: monkey TIM-3 on CHOK1 stable cell line (CHOK1-cTIM-3) (monkey); experiment: FACS, CHOK1-cTIM-3 cells, 0.013 nM antibody

monkey TIM-3 on CHOK1 stable cell line (CHOK1-cTIM-3) (monkey), sequence (chain, as listed by the source limits assumed): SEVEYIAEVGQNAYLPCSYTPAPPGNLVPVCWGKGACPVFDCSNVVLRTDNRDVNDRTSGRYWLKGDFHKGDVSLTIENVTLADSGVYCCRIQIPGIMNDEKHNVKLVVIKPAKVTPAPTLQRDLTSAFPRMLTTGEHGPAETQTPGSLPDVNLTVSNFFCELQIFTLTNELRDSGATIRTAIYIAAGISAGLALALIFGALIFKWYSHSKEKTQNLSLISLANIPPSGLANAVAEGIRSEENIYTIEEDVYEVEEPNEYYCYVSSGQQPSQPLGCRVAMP
human TIM-3 protein on human PBMC (human), sequence (Q8TDQ0 22-301 limits assumed): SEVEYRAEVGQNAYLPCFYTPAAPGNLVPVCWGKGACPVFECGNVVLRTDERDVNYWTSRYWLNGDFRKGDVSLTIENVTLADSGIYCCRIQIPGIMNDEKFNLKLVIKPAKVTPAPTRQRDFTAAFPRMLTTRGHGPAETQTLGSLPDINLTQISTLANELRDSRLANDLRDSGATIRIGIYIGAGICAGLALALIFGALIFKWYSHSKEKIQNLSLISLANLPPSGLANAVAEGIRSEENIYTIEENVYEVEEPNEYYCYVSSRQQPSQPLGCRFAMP
TIM-3 protein on human peripheral blood mononuclear lymphocytes (PBMC) (human), sequence (Q8TDQ0 22-301 limits assumed): as above
human TIM-3, full length, on cells (human), sequence (Q8TDQ0 22-301 limits assumed): as above
monkey TIM-3 protein with hFc tag (cTIM-3-hFc protein) (monkey; human), sequence (chain, as listed by the source): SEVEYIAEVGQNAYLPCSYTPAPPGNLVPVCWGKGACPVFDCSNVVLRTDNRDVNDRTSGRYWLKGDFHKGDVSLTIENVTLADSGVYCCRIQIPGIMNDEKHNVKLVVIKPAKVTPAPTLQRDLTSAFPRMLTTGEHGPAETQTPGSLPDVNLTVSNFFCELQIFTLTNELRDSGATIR
murine TIM-3 protein with hFc tag (mTIM-3-hFc protein) (mouse; human), sequence (Q8VIM0 other isoform, or with tags, fused parts or gaps): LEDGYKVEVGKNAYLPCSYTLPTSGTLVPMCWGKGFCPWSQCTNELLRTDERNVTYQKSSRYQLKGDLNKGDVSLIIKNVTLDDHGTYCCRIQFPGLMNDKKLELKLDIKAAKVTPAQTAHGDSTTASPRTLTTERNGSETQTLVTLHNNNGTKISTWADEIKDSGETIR
human TIM-3 protein with hFc tag (hTIM-3-hFc protein) (human), sequence (Q8TDQ0 22-200): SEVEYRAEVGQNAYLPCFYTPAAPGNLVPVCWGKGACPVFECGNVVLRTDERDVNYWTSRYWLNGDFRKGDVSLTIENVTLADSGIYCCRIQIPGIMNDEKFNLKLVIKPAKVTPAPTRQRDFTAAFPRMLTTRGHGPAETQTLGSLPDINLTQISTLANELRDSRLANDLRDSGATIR

- OD450 nm [1]: 0.92 and 0.86
- OD450 nm [2]: 1.78 and 1.75
- OD450 nm [3]: 3.52 and 3.38
- OD450 nm [4]: 3.23 and 3.27
- OD450 nm [5]: 3.48 and 3.44
- OD450 nm [6]: 0.6 and 0.59
- OD450 nm [7]: 3.45 and 3.42
- OD450 nm [8]: 3.42 and 3.32
Substance: commercially available anti-TIM-3 antibody (R&D system, MAB2365)

- IFN-γ production, lymphocyte activation assay (donor Y), negative control IgG 0.1 µg/ml, N = 1 [9]: 2100 pg/mL
- IFN-γ production, lymphocyte activation assay (donor Y), negative control IgG 0.1 µg/ml, N = 2 [9]: 2020 pg/mL
- IFN-γ production, lymphocyte activation assay (donor Y), negative control IgG 1 µg/ml, N = 1 [9]: 2190 pg/mL
- IFN-γ production, lymphocyte activation assay (donor Y), negative control IgG 1 µg/ml, N = 2 [9]: 1770 pg/mL
- IFN-γ production, lymphocyte activation assay (donor Y), negative control IgG 10 µg/ml, N = 1 [9]: 1930 pg/mL
- IFN-γ production, lymphocyte activation assay (donor Y), negative control IgG 10 µg/ml, N = 2 [9]: 1980 pg/mL
- IFN-γ production, lymphocyte activation assay (donor Y), negative control IgG, concentration head printed '0' (fifth), N = 1 [9]: 2000 pg/mL
- IFN-γ production, lymphocyte activation assay (donor Y), negative control IgG, concentration head printed '0' (fifth), N = 2 [9]: 2070 pg/mL
- IFN-γ production, lymphocyte activation assay (donor Y), negative control IgG, concentration head printed '0' (fourth), N = 1 [9]: 1990 pg/mL
- IFN-γ production, lymphocyte activation assay (donor Y), negative control IgG, concentration head printed '0' (fourth), N = 2 [9]: 2160 pg/mL
Substance: hIgG control (human IgG) (antibody)

- OD450 nm [1]: 0.63 and 0.59
- OD450 [10]: 0.12
- OD450 [11]: 0.58
- OD450 [12]: 0.11
- Mean fluorescence intensity [13]: 3
- OD450 [14]: 0.62
- OD450 [15]: 0.13
- OD450 [16]: 0.22
- Mean fluorescence intensity [17]: 3
- OD450 [18]: 0.55
- Mean fluorescence intensity [19]: 3
- OD450 [20]: 0.55
- OD450 nm [2]: 0.55 and 0.58
- OD450 [21]: 0.12
- OD450 nm [3]: 0.63 and 0.65
- OD450 [22]: 0.55
- OD450 [23]: 0.12
- Mean fluorescence intensity [24]: 3.1
- OD450 nm [4]: 0.6 and 0.59
- OD450 [25]: 0.6
- OD450 [26]: 0.67
- OD450 [27]: 0.75
- OD450 [28]: 0.68
- OD450 [29]: 0.57
- OD450 nm [5]: 0.72 and 0.7
- Mean fluorescence intensity [30]: 3.8
- OD450 [31]: 0.63
- OD450 [32]: 0.13
- OD450 nm [6]: 0.61 and 0.59
- OD450 [33]: 0.65
- Mean fluorescence intensity [34]: 3
- OD450 nm [7]: 0.63
- OD450 [35]: 0.66
- OD450 [36]: 0.54
- Mean fluorescence intensity [37]: 3
- OD450 [38]: 0.54
- OD450 [39]: 0.64
- OD450 nm [8]: 0.69 and 0.58
- OD450 [40]: 0.11
- Mean fluorescence intensity [41]: 3.3
Substance: rat IgG (negative control antibody)

- Mean fluorescence intensity [42]: 3.5
- Mean fluorescence intensity [43]: 3.7
- Mean fluorescence intensity [44]: 3.4
- Mean fluorescence intensity [45]: 4.8
- IFN production; antibody 0.001 µg/ml (4th head as printed), N = 1 [46]: 738 pg/mL
- IFN production; antibody 0.001 µg/ml (4th head as printed), N = 2 [46]: 786 pg/mL
- IFN production; antibody 0.001 µg/ml (5th head as printed), N = 1 [46]: 727 pg/mL
- IFN production; antibody 0.001 µg/ml (5th head as printed), N = 2 [46]: 714 pg/mL
- IFN production; antibody 0.1 µg/ml, N = 1 [46]: 718 pg/mL
- IFN production; antibody 0.1 µg/ml, N = 2 [46]: 664 pg/mL
- IFN production; antibody 1 µg/ml, N = 1 [46]: 694 pg/mL
- IFN production; antibody 1 µg/ml, N = 2 [46]: 574 pg/mL
- IFN production; antibody 10 µg/ml, N = 1 [46]: 620 pg/mL
- IFN production; antibody 10 µg/ml, N = 2 [46]: 582 pg/mL
- Mean fluorescence intensity [47]: 3.8
- Mean fluorescence intensity [48]: 3.6
- Mean fluorescence intensity [49]: 3.2
- Mean fluorescence intensity [50]: 3.3
Substance: rat IgG control (antibody)
